In publication PMC9122904, “Insights into the client protein release mechanism of the ATP-independent chaperone Spy” (Nature Communications, 2022):

Experiments:
Experiment in all cases: BLI; Octet RED96; client biotinylated and loaded on streptavidin sensors; Spy or Spy variant in solution at 0.25, 0.5, 1, 1.5 and 2 μM; 40 mM HEPES, 150 mM NaCl, pH 7.5; Kd calculated as koff/kon
Details in all cases: both partners purified
Spy_(24-127) [1] = target: T1, Spy_(24-127) (UniProt P77754 47-150)
T1 construct: Spy chaperone, residues 24-127; source: E. coli BL21 (DE3), purified (Ni-NTA, cation exchange, SEC); not shown: His6, N-terminal, cleaved; SUMO, N-terminal, cleaved
T1 sequence (looked up): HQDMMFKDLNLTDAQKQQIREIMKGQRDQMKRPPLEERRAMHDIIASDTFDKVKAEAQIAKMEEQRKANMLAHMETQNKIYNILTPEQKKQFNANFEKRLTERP
Method in brief: (§1)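 Biolayer interferometry used an Octet RED96: client proteins biotinylated with EZ-link NHS-biotin (1:1 molar ratio) were loaded on streptavidin sensors, dipped into 40 mM HEPES, 150 mM NaCl, pH 7.5 containing Spy protein at 0.25, 0.5, 1, 1.5 and 2 μM, then moved to Spy-free buffer. Wavelength-shift association and dissociation curves were fitted in SigmaPlot 12.0, giving observed association rate and koff. kon came from observed rate versus Spy concentration; Kd was koff/kon.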

Spy_(1-124) = target: T2, Spy_(1-124) (UniProt P77754 24-147)
T2 construct: source: E. coli BL21 (DE3), purified (Ni-NTA, cation exchange, SEC); not shown: His6, N-terminal, cleaved; SUMO, N-terminal, cleaved
T2 sequence (looked up): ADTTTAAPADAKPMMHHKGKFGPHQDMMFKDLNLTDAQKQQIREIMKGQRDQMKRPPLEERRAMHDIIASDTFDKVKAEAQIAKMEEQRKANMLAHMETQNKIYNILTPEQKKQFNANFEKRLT
Method in brief: as §1

Spy_(21-130) = target: T3, Spy_(21-130) (UniProt P77754 44-153)
T3 construct: Spy chaperone, residues 21-130; source: E. coli BL21 (DE3), purified (Ni-NTA, cation exchange, SEC); not shown: His6, N-terminal, cleaved; SUMO, N-terminal, cleaved
T3 sequence (looked up): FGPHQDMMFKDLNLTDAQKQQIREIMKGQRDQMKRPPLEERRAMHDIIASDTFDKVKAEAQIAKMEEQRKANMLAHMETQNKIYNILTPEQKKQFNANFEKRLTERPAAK
Method in brief: as §1

Spy_(29-124) = target: T4, Spy_(29-124) (UniProt P77754 52-147)
T4 construct: also called termini-free Spy; source: E. coli BL21 (DE3), purified (Ni-NTA, cation exchange, SEC); not shown: His6, N-terminal, cleaved; SUMO, N-terminal, cleaved
T4 sequence (looked up): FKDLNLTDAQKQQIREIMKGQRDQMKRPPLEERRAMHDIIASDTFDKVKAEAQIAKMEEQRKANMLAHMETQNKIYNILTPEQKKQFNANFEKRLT
Method in brief: as §1

Spy_(24-124) = target: T5, Spy_(24-124) (UniProt P77754 47-147)
T5 construct: source: E. coli BL21 (DE3), purified (Ni-NTA, cation exchange, SEC); not shown: His6, N-terminal, cleaved; SUMO, N-terminal, cleaved
T5 sequence (looked up): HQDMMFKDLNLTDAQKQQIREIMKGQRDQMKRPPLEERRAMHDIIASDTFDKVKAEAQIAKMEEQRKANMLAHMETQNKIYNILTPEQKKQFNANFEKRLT
Method in brief: as §1

Spy_(27-127) = target: T6, Spy_(27-127) (UniProt P77754 50-150)
T6 construct: Spy chaperone, residues 27-127; source: E. coli BL21 (DE3), purified (Ni-NTA, cation exchange, SEC); not shown: His6, N-terminal, cleaved; SUMO, N-terminal, cleaved
T6 sequence (looked up): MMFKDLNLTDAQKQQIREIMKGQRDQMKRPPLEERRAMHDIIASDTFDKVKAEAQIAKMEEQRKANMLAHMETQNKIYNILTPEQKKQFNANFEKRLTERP
Method in brief: as §1

Spy_(21-127) = target: T7, Spy_(21-127) (UniProt P77754 44-150)
T7 construct: Spy chaperone, residues 21-127; source: E. coli BL21 (DE3), purified (Ni-NTA, cation exchange, SEC); not shown: His6, N-terminal, cleaved; SUMO, N-terminal, cleaved
T7 sequence (looked up): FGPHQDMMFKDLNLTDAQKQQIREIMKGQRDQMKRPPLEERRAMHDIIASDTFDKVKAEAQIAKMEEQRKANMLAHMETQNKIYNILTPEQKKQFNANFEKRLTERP
Method in brief: as §1

Spy_(24-127) [2] = target: T1, Spy_(24-127); remark: listed apart in the source
Method in brief: as §1

Spy_(29-138) = target: T8, Spy_(29-138) (UniProt P77754 52-161)
T8 construct: source: E. coli BL21 (DE3), purified (Ni-NTA, cation exchange, SEC); not shown: His6, N-terminal, cleaved; SUMO, N-terminal, cleaved
T8 sequence (looked up): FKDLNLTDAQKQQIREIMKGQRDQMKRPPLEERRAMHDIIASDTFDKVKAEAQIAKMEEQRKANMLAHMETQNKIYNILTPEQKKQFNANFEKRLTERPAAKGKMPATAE
Method in brief: as §1

B1: Im7 H40W L53A I54A (natural protein)
chain: MELKNSISDYTEAEFVQLLKEIEKENVAATDDVLDVLLEWFVKITEHPDGTDAAYYPSDNRDDSPEGIVKEIKEWRAANGKPGFKQG
modifications: biotin (EZ-link NHS-biotin, 1:1 molar ratio of biotin to protein)
notes: Im7 (colicin E7 immunity protein) with H40W L53A I54A; Spy was made with an N-terminal His6-SUMO tag that was cleaved; also called Im7AAW; partially folded client; source: purified by a similar procedure to Spy
B1 gave a Kd (Spy_(24-127) [1]) of 1730 nM, a kon (Spy_(1-124)) of 203000 M⁻¹ s⁻¹ and a kon (Spy_(21-130)) of 187000 M⁻¹ s⁻¹. For the same binder, the kon (Spy_(29-124)) was 273000 M⁻¹ s⁻¹, the kon (Spy_(24-124)) was 258000 M⁻¹ s⁻¹ and the kon (Spy_(27-127)) was 312000 M⁻¹ s⁻¹. The kon (Spy_(21-127)) was 258000 M⁻¹ s⁻¹, the kon (Spy_(24-127) [2]) was 227000 M⁻¹ s⁻¹ and the kon (Spy_(29-138)) was 286000 M⁻¹ s⁻¹.
